The series is described as follows: self-splicing fitness, log relative to wild type (ln ratio); higher = more splicing; Tetrahymena group I intron in knt gene, E. coli kanamycin selection, DiMSum; sequences stand for … in CUCUCU…GGAGGGAAAAGUUAUCAGGCAUGCACCUGGUAGCUAGUCUUUAAACCAAUAGAUUGCAUCGGUUUAAAAGGCAAGACCGUCAAAUUGCGGGAAAGGGGUCAACAGCCGUUCAGUACCAAGUCUCAGGGGAAACUUUGAGAUGGCCUUGCAAAGGGUAUGGUAAUAAGCUGACGGACAUGGUCCUAACCACGCAGCCAAGUCCUAAGUCAACAGAUCUUCUGUUGAUAUGGAUGCAGUUCACAGACUAAAUGUCGGUCGGGGAAGAUGUAUUCUUCUCAUAAGAUAUAGUCGGACCUCUCCUUAAUGGGAGCUAGCGGAUGAAGUGAUGCAACACUGGAGCCGCUGGGAACUAAUUUGUAUGCGAAAGUAUAUUGAUUAGUUUUGGAGUACUCGUGGUCG
Summed up:
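Fitness was computed with DiMSum as the error-weighted combination of replicate fold changes, kanamycin versus none, each normalised to wild type. The library randomised all eight intron nucleotides of the P1ex region, with the intron placed in the knt kanamycin-resistance gene on pET-22b(+) in E. coli BL21(DE3). Six replicate transformations were grown overnight at 37°C or 30°C on LB agar with or without 25 μg/mL kanamycin, plus 100 μg/mL carbenicillin, 50 μM IPTG and 0.2% rhamnose. Pooled colonies were amplicon-sequenced on an Illumina HiSeq 2500.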

± gives the uncertainty stated by the source.

For UAGUAGCAAUAUUACGCGUU, the “self-splicing fitness (ln)” value by setting is: (30 °C) -2.86 ± 0.17; (37 °C) -2.44 ± 0.23.
The matching figures for UAGUAGCAAUAUUACGCUGG: -1.13 ± 0.099 and -1.34 ± 0.15.
In the case of UAGUAGCAAUAUUACGGAAU, for the setting “37 °C”, the “self-splicing fitness (ln)” value is -2.65 ± 0.44.
Turning to UAGUAGCAAUAUUACGGACG, the “self-splicing fitness (ln)” value (30 °C) was -2.09 ± 0.12 and the “self-splicing fitness (ln)” value (37 °C) was -0.623 ± 0.13.
The matching figures for UAGUAGCAAUAUUACGGAUG: -0.956 ± 0.084 and -0.222 ± 0.087.
The matching figures for UAGUAGCAAUAUUACGGGCC: -2.91 ± 0.23 and -1.62 ± 0.22.
Consider UAGUAGCAAUAUUACGUAGG, for which the “self-splicing fitness (ln)” value (30 °C) was -3.19 ± 0.47.
As to UAGUAGCAAUAUUACGUCUG, the “self-splicing fitness (ln)” value is 0.113 ± 0.19 (30 °C) and -0.884 ± 0.2 (37 °C).
Regarding UAGUAGCAAUAUUACGUGCG, the “self-splicing fitness (ln)” value reads like this: (30 °C) -1.52 ± 0.12; (37 °C) -0.311 ± 0.15.
The matching figures for UAGUAGCAAUAUUACGUGGU: -3.62 ± 0.18 and -3.33 ± 0.19.
As for UAGUAGCAAUAUUACGUUGA, the “self-splicing fitness (ln)” value is -2.34 ± 0.13 (30 °C) and -1.54 ± 0.12 (37 °C).
The matching figures for UAGUAGCAAUAUUACGUUUG: -2.4 ± 0.18 and -0.923 ± 0.14.
Turning to UAUAAGCAAUAUUACGAGCU, the “self-splicing fitness (ln)” value is -3.44 ± 0.34 (30 °C) and -1.47 ± 0.21 (37 °C).
The matching figures for UAUAAGCAAUAUUACGAGUA: -0.776 ± 0.085 and -0.245 ± 0.081.
Consider UAUAAGCAAUAUUACGAUAC, for which the “self-splicing fitness (ln)” value (37 °C) was -2.39 ± 0.33.
With UAUAAGCAAUAUUACGAUCA, the “self-splicing fitness (ln)” value (30 °C) was -0.251 ± 0.1 and the “self-splicing fitness (ln)” value (37 °C) was 0.847 ± 0.11.
For UAUAAGCAAUAUUACGCCAC, in that order: -3.21 ± 0.43 and -1.21 ± 0.38.
Take UAUAAGCAAUAUUACGCGUU: the “self-splicing fitness (ln)” value is, setting by setting: (30 °C) -2.67 ± 0.14; (37 °C) -0.931 ± 0.12.
For UAUAAGCAAUAUUACGCUCU, in that order: -0.357 ± 0.11 and 0.0533 ± 0.16.
Turning to UAUAAGCAAUAUUACGCUGC, the “self-splicing fitness (ln)” value (30 °C) was -3.35 ± 0.32.
In the case of UAUAAGCAAUAUUACGGCGU, the “self-splicing fitness (ln)” value reads like this: (30 °C) -0.993 ± 0.093; (37 °C) -0.232 ± 0.12.
The matching figures for UAUAAGCAAUAUUACGGCUA: -0.234 ± 0.092 and -0.126 ± 0.13.
With UAUAAGCAAUAUUACGGCUU, the “self-splicing fitness (ln)” value runs as follows: (30 °C) -1.22 ± 0.12; (37 °C) -0.669 ± 0.16.
For UAUAAGCAAUAUUACGGGAC, in that order: -4.01 ± 0.37 and -2.76 ± 0.32.
The matching figures for UAUAAGCAAUAUUACGGUCA: -0.385 ± 0.12 and -0.125 ± 0.13.
The matching figures for UAUAAGCAAUAUUACGUGAG: -1.56 ± 0.1 and -1.12 ± 0.14.
Regarding UAUAAGCAAUAUUACGUGUG, the “self-splicing fitness (ln)” value was -0.923 ± 0.073 (30 °C) and -0.446 ± 0.088 (37 °C).
In the case of UAUCAGCAAUAUUACGAAAC, under “37 °C”, the “self-splicing fitness (ln)” value is -2.08 ± 0.32.
In the case of UAUCAGCAAUAUUACGAAGG, the “self-splicing fitness (ln)” value is -1.58 ± 0.1 (30 °C) and -1.34 ± 0.13 (37 °C).
For UAUCAGCAAUAUUACGACAG, in that order: -0.385 ± 0.078 and 0.0531 ± 0.1.
For UAUCAGCAAUAUUACGACUC, in that order: -0.81 ± 0.11 and -0.283 ± 0.12.
For UAUCAGCAAUAUUACGACUG, in that order: 0.153 ± 0.078 and 0.512 ± 0.13.
Take UAUCAGCAAUAUUACGAGAA: the “self-splicing fitness (ln)” value was -1.22 ± 0.16 (30 °C) and -0.559 ± 0.13 (37 °C).
Turning to UAUCAGCAAUAUUACGAGCG, the “self-splicing fitness (ln)” value was -0.616 ± 0.059 (30 °C) and 0.345 ± 0.088 (37 °C).
For UAUCAGCAAUAUUACGAUGU, in that order: -0.816 ± 0.072 and -0.0178 ± 0.11.
For UAUCAGCAAUAUUACGAUUG, in that order: -0.748 ± 0.087 and 0.588 ± 0.1.
The matching figures for UAUCAGCAAUAUUACGCAUG: -1.1 ± 0.082 and 0.181 ± 0.099.
Consider UAUCAGCAAUAUUACGCCCG, for which the “self-splicing fitness (ln)” value runs as follows: (30 °C) -0.133 ± 0.098; (37 °C) -0.202 ± 0.13.
For UAUCAGCAAUAUUACGCCUU, in that order: -0.446 ± 0.24 and -0.723 ± 0.23.
The matching figures for UAUCAGCAAUAUUACGCUAU: -2.29 ± 0.11 and -1.74 ± 0.1.
The matching figures for UAUCAGCAAUAUUACGCUUA: -0.532 ± 0.13 and 0.504 ± 0.13.
On to UAUCAGCAAUAUUACGCUUC, for which the “self-splicing fitness (ln)” value is -2.82 ± 0.23 (30 °C) and -2.09 ± 0.27 (37 °C).
For UAUCAGCAAUAUUACGGAGA, in that order: -0.973 ± 0.085 and -0.0429 ± 0.1.
The matching figures for UAUCAGCAAUAUUACGGGUA: -1.2 ± 0.092 and -0.623 ± 0.1.
Turning to UAUCAGCAAUAUUACGGGUU, the “self-splicing fitness (ln)” value was -1.83 ± 0.1 (30 °C) and -0.944 ± 0.11 (37 °C).
For UAUCAGCAAUAUUACGGUGU, in that order: -1.35 ± 0.072 and -1.19 ± 0.098.
The matching figures for UAUCAGCAAUAUUACGUUGG: -2.48 ± 0.089 and -0.612 ± 0.1.
On to UAUGAGCAAUAUUACGAAAC, for which the “self-splicing fitness (ln)” value (30 °C) was -2.34 ± 0.21.
With UAUGAGCAAUAUUACGACUA, the “self-splicing fitness (ln)” value is, setting by setting: (30 °C) -0.118 ± 0.11; (37 °C) 0.0355 ± 0.12.
UAUGAGCAAUAUUACGACUU: where the note is “30 °C”, the “self-splicing fitness (ln)” value was -2.66 ± 0.24.
UAUGAGCAAUAUUACGAGUC: the “self-splicing fitness (ln)” value (37 °C) is -0.461 ± 0.46.
Regarding UAUGAGCAAUAUUACGCCUA, the “self-splicing fitness (ln)” value reads like this: (30 °C) -1.59 ± 0.18; (37 °C) -0.615 ± 0.21.
The matching figures for UAUGAGCAAUAUUACGCGUC: -2.05 ± 0.16 and -2.81 ± 0.37.
UAUGAGCAAUAUUACGCUCC: the “self-splicing fitness (ln)” value (30 °C) was -1.47 ± 0.31.
Turning to UAUGAGCAAUAUUACGCUUU, the “self-splicing fitness (ln)” value (30 °C) is -4.14 ± 0.33 and the “self-splicing fitness (ln)” value (37 °C) is -2.65 ± 0.36.
For the sequence UAUGAGCAAUAUUACGGAGC, the “self-splicing fitness (ln)” value (30 °C) is -1.38 ± 0.36.
With UAUGAGCAAUAUUACGGAGU, the “self-splicing fitness (ln)” value runs as follows: (30 °C) -4.87 ± 0.36; (37 °C) -3.53 ± 0.37.
The matching figures for UAUGAGCAAUAUUACGGCCG: -1.33 ± 0.36 and -1.01 ± 0.35.
Turning to UAUGAGCAAUAUUACGGGCC, the “self-splicing fitness (ln)” value (37 °C) is -3.14 ± 0.43.
Consider UAUGAGCAAUAUUACGGGGG, for which the “self-splicing fitness (ln)” value reads like this: (30 °C) -3.16 ± 0.26; (37 °C) -2.31 ± 0.29.
The matching figures for UAUGAGCAAUAUUACGGGUU: -4.04 ± 0.3 and -2.41 ± 0.27.
Turning to UAUGAGCAAUAUUACGGUAA, the “self-splicing fitness (ln)” value is -3.33 ± 0.35 (30 °C) and -2.78 ± 0.35 (37 °C).
The matching figures for UAUGAGCAAUAUUACGGUUG: -4.24 ± 0.43 and -2.38 ± 0.45.
For UAUGAGCAAUAUUACGGUUU, in that order: -3.7 ± 0.2 and -2.43 ± 0.21.
